Tests used:
[1] = biological target: Ire1^bipless, GFP- and mCherry-tagged copies (FRET pair) (yeast) (UniProt P32361); experiment: FRET or BRET; microscopy-based FRET (spinning disc confocal) between GFP- and mCherry-tagged copies co-expressed in live yeast cells; cells treated with 5 mM DTT for 4 h (for Ire1^bipless only 'in the presence of DTT' is printed)
[2] = biological target: Ire1^bipless, GFP- and mCherry-tagged copies (FRET pair) (yeast) (UniProt P32361); experiment: FRET or BRET; microscopy-based FRET (spinning disc confocal) between GFP- and mCherry-tagged copies co-expressed in live yeast cells; untreated cells (no DTT)

Ire1^bipless, GFP- and mCherry-tagged copies (FRET pair) (from UniProt P32361 19-474; P32361 527-1115) (natural protein)
FRET signal [1]: 0.71 a.u. | FRET signal [2]: 0.17 a.u.

From paper PMC2897766
